± gives the uncertainty stated by the source.

The results in this text go back to the supplement of paper PMC12042874.

The series in a line: amyloid nucleation score (Sup35N fusion, yeast selection) (log enrichment); library NNK3; higher = more nucleation; inactive = no reads after selection. Put shortly:
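The nucleation score, computed with DiMSum, is the log enrichment of output over input reads, centred on the mode score of non-aggregating sequences. Sequences with under 100 input reads were dropped. Reads were generated by Illumina sequencing of plasmid inserts from psi-negative yeast with Sup35N fused to peptides of 20 random codons, induced with 100 μM copper sulfate for 24 hours and grown 7 days at 30°C on medium lacking adenine and uracil.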
On to SYSDRGCVGMNVLSVFEGWD, for which the amyloid nucleation score result is “inactive”.

Substance SYSKVCRSKRQI returned an amyloid nucleation score of 0.185 ± 0.71.

On to SYSTARDSVGLSSWSSLIKW, for which the amyloid nucleation score result was “inactive”.

As for SYTSMFPRCQKIHLRQVRIS, the amyloid nucleation score entry was “inactive”.

As for SYYITLHWIVASGSYSADNT, the amyloid nucleation score amounted to 0.454 ± 0.14.

Turning to TACLSVQMWFRFSVFSGVYL, the amyloid nucleation score result was “inactive”.

Take TAIRIMMRV: the amyloid nucleation score result was “inactive”.

In turn, TAIVIMTYYTIRGFRTIGMW displayed an amyloid nucleation score of -0.174 ± 0.22.

As for TAKMSRVYCCCFSLFDVSLK, the amyloid nucleation score entry was “inactive”.

With TAKSSGINDRLTQRI, the amyloid nucleation score entry was “inactive”.

Substance TALAEQ displayed an amyloid nucleation score of -0.402 ± 1.3.

For the substance TAMCQSLGPTATTLTGVSWG, the amyloid nucleation score result was “inactive”.

Turning to TARPSNKMNHRECCTNKFFP, the amyloid nucleation score entry is “inactive”.

Consider TASPCFNSYLKNFVLGLPTT, for which the amyloid nucleation score entry is “inactive”.

In turn, TASVLNYFSGFWRGV showed an amyloid nucleation score of 1.04 ± 0.17.

For the substance TASVRVRFPLSFTPCLEVHP, the amyloid nucleation score entry was “inactive”.

As to TCISFYETVAL, the amyloid nucleation score result is “inactive”.

For TCLLFVTHFNWYNTLVEGTI, the amyloid nucleation score turned out to be 0.989 ± 0.15.

For TCLWGYALFICMNSRWGMRW, the amyloid nucleation score entry was “inactive”.

As for TCSHVYQTYAVKAASKNIMI, the amyloid nucleation score result is “inactive”.

On to TCSRIQLISNWFRVQLKSNV, for which the amyloid nucleation score result is “inactive”.

In the case of TCSYANHMSKVFEVVMV, the amyloid nucleation score entry was “inactive”.

In turn, TCTAFQMHI showed an amyloid nucleation score of 0.007 ± 0.68.

For the substance TDKAICISLFRVIRLYAYAK, the amyloid nucleation score result was “inactive”.

As to TDMHGFNNIS, the amyloid nucleation score entry is “inactive”.

Take TDRTQ: the amyloid nucleation score result is “inactive”.

Turning to TDTSAGFM, the amyloid nucleation score result was “inactive”.

For TDVDNGLYRIDNLMARAKVY, the amyloid nucleation score entry is “inactive”.

As to TECMGGGSVWTQW, the amyloid nucleation score result was “inactive”.

Consider TEDGYNNEMSRQKVMVLINT, for which the amyloid nucleation score entry was “inactive”.

On to TEFKAFHNCQINRSDTTLWL, for which the amyloid nucleation score is 0.096 ± 0.68.

Turning to TENKSMSFFNYDRAYARIL, the amyloid nucleation score entry is “inactive”.

As to TENQS, the amyloid nucleation score result is “inactive”.

Regarding TEQRMQ, the amyloid nucleation score entry is “inactive”.

With TESQRSNWCTASIKSMYSYS, the amyloid nucleation score result is “inactive”.

Regarding TETSWDGVVLSLISCRFQSY, the amyloid nucleation score turned out to be 3.02 ± 0.079.

With TEVPFRVSF, the amyloid nucleation score entry is “inactive”.

TEVSQWGVREVFSLSTSRRL displayed an amyloid nucleation score of 0.372 ± 0.28.

As to TFEWCMPFFTNFSLMFFFYW, the amyloid nucleation score result is “inactive”.

Take TFFEVGRQYELAVGKSRSSM: the amyloid nucleation score entry is “inactive”.

Regarding TFGFRNRYFELLSVVIRHLA, the amyloid nucleation score result was “inactive”.

Consider TFLMAYSWSCRQRNCKGFIY, for which the amyloid nucleation score entry was “inactive”.

As for TFPLAECRWIVWRLDDSLM, the amyloid nucleation score entry was “inactive”.

For TFPRERWDCPCKVIFRSVTP, the amyloid nucleation score entry was “inactive”.

TFRIVRFCLKILTCRTC: the amyloid nucleation score result is “inactive”.

Substance TFSASAVFTYDKGAPPLLEG had an amyloid nucleation score of 0.999 ± 0.17.

On to TFTLSCFTCNGFVSDVVHCD, for which the amyloid nucleation score is 3.21 ± 0.054.

As for TFTTFRWDEGVLLYLYERVG, the amyloid nucleation score entry was “inactive”.

Take TFVVGRVITWKNQVCL: the amyloid nucleation score entry was “inactive”.

In the case of TFWFD, the amyloid nucleation score entry was “inactive”.

As for TFWKKGMPGIIYRYFYLF, the amyloid nucleation score result was “inactive”.

In the case of TFYDDYQDLQKLFARFWLPV, the amyloid nucleation score entry was “inactive”.

On to TGDSLLLAHLLWSMDIVNMN, for which the amyloid nucleation score entry is “inactive”.

The substance TGFYDCNLGLDLCIAIWVCS came in with an amyloid nucleation score of -0.156 ± 0.34.

As to TGHWNSDWFLI, the amyloid nucleation score entry was “inactive”.

For TGLNIILLLCFMMSLGES, the amyloid nucleation score entry was “inactive”.

As for TGMFL, the amyloid nucleation score is -0.004 ± 0.2.

On to TGSMFRSRPRSEG, for which the amyloid nucleation score entry is “inactive”.

Consider TGSTDRHYGRYIGWGANSRF, for which the amyloid nucleation score entry is “inactive”.

TGSVVRDMVMAFTD: the amyloid nucleation score was -0.458 ± 0.93.

For the substance TGVVTMF, the amyloid nucleation score result was “inactive”.

On to TGYCYMILLRNGVQVSVEGT, for which the amyloid nucleation score came out at 0.092 ± 0.81.

As to TGYSYFYGWMVTYATQSKRV, the amyloid nucleation score result was “inactive”.

TGYWI: the amyloid nucleation score entry is “inactive”.

As for THEVISSFGMVFRNSNFCNS, the amyloid nucleation score result was “inactive”.

Turning to THLVDYKLVL, the amyloid nucleation score entry is “inactive”.

Turning to THRDYLMVRYCGSCHVEMVS, the amyloid nucleation score entry was “inactive”.

For TIAVLMLIDCGSRGPFRHLT, the amyloid nucleation score entry was “inactive”.

TIKYVDRPARTGGEALAIVV returned an amyloid nucleation score of -0.323 ± 1.

Consider TINRHYVTASRYWLPCRRVR, for which the amyloid nucleation score entry is “inactive”.

Take TIRFGSSLPCNPDSSYLLRI: the amyloid nucleation score result was “inactive”.

For the substance TISYMWRLNGWRSNRAFGSI, the amyloid nucleation score result was “inactive”.

TIYFF returned an amyloid nucleation score of 1.27 ± 0.11.

Take TKECGKKFNYWVRIDLSRLW: the amyloid nucleation score result is “inactive”.

For the substance TKLMGLSVLLIEVIVGVSCW, the amyloid nucleation score entry was “inactive”.

On to TKSAYRWSRKVRNEFQGSMG, for which the amyloid nucleation score entry was “inactive”.

Regarding TKTFSDVMLYQCAARCKDLH, the amyloid nucleation score result was “inactive”.

Take TKVFVLHSYDCTIKTSGFNS: the amyloid nucleation score entry is “inactive”.

Take TKWANR: the amyloid nucleation score entry is “inactive”.

TKYFRSNNPFHLVYTYIYLT: the amyloid nucleation score result was “inactive”.

As to TLASTGYFFR, the amyloid nucleation score entry is “inactive”.

TLDAILNLHTS: the amyloid nucleation score result was “inactive”.

In the case of TLDINMNLRSLYVGQHYADI, the amyloid nucleation score result was “inactive”.

In the case of TLDPNIHESFFSAACWYSKA, the amyloid nucleation score result was “inactive”.

Substance TLFQDSLLYVSWRSES showed an amyloid nucleation score of 0.118 ± 0.34.

On to TLGIWRDYSYKTILRRWDDR, for which the amyloid nucleation score entry is “inactive”.

As to TLGVRIHCGEFNLYDHSRVK, the amyloid nucleation score came out at 0.875 ± 0.26.

TLHWCMVSNHRAKCYCLFET: the amyloid nucleation score worked out at 0.472 ± 0.42.

Take TLIFFDKDYYCGVRQMWNVG: the amyloid nucleation score entry is “inactive”.

For the substance TLIRRVYVRRFYTGIEVGST, the amyloid nucleation score result is “inactive”.

Regarding TLLDVPRSRLWSKFWLCVQL, the amyloid nucleation score result was “inactive”.

Take TLLFSIYCIFLNPSVQRRFE: the amyloid nucleation score was -0.028 ± 0.43.

Regarding TLLPLQMFTNHWALMPSSHR, the amyloid nucleation score worked out at 0.125 ± 0.9.

As for TLLRLHQVAY, the amyloid nucleation score result is “inactive”.

In the case of TLLVCNMWNFSRNIMVHIGV, the amyloid nucleation score entry is “inactive”.

As for TLLYERNEYVVRNTYWDICL, the amyloid nucleation score entry was “inactive”.

As to TLLYTI, the amyloid nucleation score result was “inactive”.

On to TLNVVPR, for which the amyloid nucleation score entry was “inactive”.

Consider TLSCDRKNCVVHCFLIQRFL, for which the amyloid nucleation score result was “inactive”.

For TLSCTKVTP, the amyloid nucleation score result is “inactive”.

As for TLSIEMGQLDRERVGLNCKR, the amyloid nucleation score entry is “inactive”.

TLSVLFSVSAAAFGVHRIQD returned an amyloid nucleation score of 1.09 ± 0.21.

For the substance TLSYRMFINKPSGMMCEHFN, the amyloid nucleation score is 1.05 ± 0.11.

As for TLVRTDPRGTVSPPTFPCEW, the amyloid nucleation score result was “inactive”.

As for TMCCACVFLSSSGWEFNYGL, the amyloid nucleation score is 2.35 ± 0.081.

On to TMKIMFVEPWKCRAAFQL, for which the amyloid nucleation score result is “inactive”.

With TMNAICLNPVS, the amyloid nucleation score entry was “inactive”.

Regarding TMSLFTTSVCCWTKGAIRHS, the amyloid nucleation score result was “inactive”.

On to TMVFILQMLV, for which the amyloid nucleation score amounted to 1.47 ± 0.097.

Turning to TMVYPKIPGGRTLAWDMTGR, the amyloid nucleation score entry was “inactive”.

As to TNANFATDSHFLVITE, the amyloid nucleation score entry was “inactive”.

Take TNIYKARL: the amyloid nucleation score entry was “inactive”.

TNKRTYFWVF registered an amyloid nucleation score of 1.02 ± 0.097.

In turn, TNLACWVTFCPNCMMLDYLG came in with an amyloid nucleation score of 2.21 ± 0.064.

Regarding TNNTKERYIHLSFMTKWWTF, the amyloid nucleation score result was “inactive”.

Take TNQALTMNCHPG: the amyloid nucleation score entry was “inactive”.

With TNTFYDHTNFMIVGLVPVRY, the amyloid nucleation score entry was “inactive”.

Regarding TNYRYSFGISYS, the amyloid nucleation score result was “inactive”.

Take TPDFVRSRKMNWVAIKKRAE: the amyloid nucleation score result is “inactive”.

Turning to TPFSCEYNIMWESRGGDWSR, the amyloid nucleation score entry was “inactive”.

For TPFTFGCHRLLQHKYCNSDV, the amyloid nucleation score result was “inactive”.

For TPKFLSMLIRTHSSPVRTHL, the amyloid nucleation score entry was “inactive”.

Regarding TPLGSQLALESDFFYTPNRC, the amyloid nucleation score result was “inactive”.

With TPMWMGT, the amyloid nucleation score entry was “inactive”.

For TPSRREMDVCVFFSPFAMHM, the amyloid nucleation score is 0.896 ± 0.095.

Substance TPYVTGTTEAVKMQHRCNVD returned an amyloid nucleation score of -0.188 ± 0.87.

For the substance TQDCG, the amyloid nucleation score entry was “inactive”.

For the substance TQLNTFYSVITSSFMIDFC, the amyloid nucleation score entry was “inactive”.

For TQNGVCYRNPVFYGRRARKL, the amyloid nucleation score result was “inactive”.

Regarding TQNNNGRVETPGASTPKHPC, the amyloid nucleation score entry is “inactive”.

For the substance TQWYS, the amyloid nucleation score result was “inactive”.

Take TRFLCSGV: the amyloid nucleation score result was “inactive”.
